# In patent US20210363241A1 (Eli Lilly, published 2021):
# T1: Human CD226 on the cell surface of stably transfected HEK 293 cells (human, UniProt Q15762 19-336)
# T1 sequence: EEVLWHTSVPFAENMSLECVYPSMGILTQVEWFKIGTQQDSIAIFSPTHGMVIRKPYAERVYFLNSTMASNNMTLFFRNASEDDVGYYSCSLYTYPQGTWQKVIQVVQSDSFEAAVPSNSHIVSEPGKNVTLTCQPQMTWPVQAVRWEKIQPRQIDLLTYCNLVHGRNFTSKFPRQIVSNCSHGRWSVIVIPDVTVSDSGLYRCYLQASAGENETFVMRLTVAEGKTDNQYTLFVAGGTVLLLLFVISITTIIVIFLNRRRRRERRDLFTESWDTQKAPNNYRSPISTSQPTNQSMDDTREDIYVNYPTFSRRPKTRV
# T2: Cynomolgus monkey CD226 on the cell surface of stably transfected HEK 293 cells (cynomolgus monkey, UniProt A0A2K5W1Z6 19-336)
# T2 construct: whole, on cells; also called Cyno-CD226
# T2 sequence: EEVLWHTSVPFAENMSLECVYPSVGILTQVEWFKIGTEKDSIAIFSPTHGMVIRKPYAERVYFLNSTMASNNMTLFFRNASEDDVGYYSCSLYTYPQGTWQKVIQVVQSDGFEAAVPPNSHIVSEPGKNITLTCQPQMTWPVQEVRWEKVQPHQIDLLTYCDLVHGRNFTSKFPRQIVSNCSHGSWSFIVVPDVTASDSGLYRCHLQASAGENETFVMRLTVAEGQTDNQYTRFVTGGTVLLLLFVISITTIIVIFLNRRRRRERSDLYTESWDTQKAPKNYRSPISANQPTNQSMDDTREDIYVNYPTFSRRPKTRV
# B1: Antibody 1 (antibody, human IgG1, kappa, V domains shown)
# VH: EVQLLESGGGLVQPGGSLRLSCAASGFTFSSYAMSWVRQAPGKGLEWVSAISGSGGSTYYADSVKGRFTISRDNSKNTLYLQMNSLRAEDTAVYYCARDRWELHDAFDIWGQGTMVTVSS
# VL: VIWMTQSPSSLSASVGDRVTITCRASQSISSYLNWYQQKPGKAPRLLIYRASTLQSGVPSRFSGDGSGTHFTLTISSLQPEDFATYYCQQSYSTPDTFGQGTKVEIKR
# notes: also called anti-human CD226 agonist antibody; human anti-human CD226 IgG1-effector null (IgG1-EN) antibody
# Legend:
# [1] = target: T1, Human CD226 on the cell surface of …; assay: cell-based or functional assay
# [2] = target: T3, Recombinant human CD226-Fc fusion protein (R&D Systems) (human); assay: ELISA, plate coated with human CD226-Fc, anti-human F(ab')2-HRP detection
# T3 construct: The reagent was bought from R&D Systems; also called Human CD226-ECD-Fc; Human CD226-Extracellular Domain-Fc
# Protocol: The ability of the antibodies disclosed herein to bind human CD226 can be measured by ELISA. To measure binding to human CD226, a 96-well plate (Immulon 2HB) is coated with human CD226-Fc (R&D Systems) overnight at 4° C. Wells are blocked for 2 h with blocking buffer (PBS containing 1% bovine serum albumin). Wells are washed three times with PBS containing 0.1% Tween-20. Antibody 1 or control IgG (100 μL) is then added at different concentrations and incubated at room temperature for 1 h. After washing, the plate is incubated with 100 μL of goat anti-human IgG F(ab′)2-HRP conjugate (Jackson Immuno Research Laboratories) at room temperature for 45 minutes. The plates are washed and then incubated with 100 μL of 3,3′, 5,5′-tetra-methylbenzidine. The absorbance at 450 nm is read on a SpectraMax® microplate reader. The half maximal effective concentration (EC50) is calculated using GraphPad Prism 7 software.
# [3] = target: T1, Human CD226 on the cell surface of …; assay: flow cytometry on HEK 293 cells expressing human CD226, antibody at 0.14 ug/mL
# Protocol: (§1) The ability of the antibodies disclosed herein to bind to cell surface Human CD226 can be measured using a flow cytometric assay. Human CD226 expressing stable cells are generated by transfecting human-CD226 plasmid DNA into human HEK 293 cells (ATCC) using Fugene-6 reagent (Promega) according to the manufacturer's protocol. Stable cells are selected using 0.5 μg/mL puromycin in Dulbecoo's Modified Eagle's Medium containing 10% fetal bovine serum and 1% GlutaMAX™. For flow cytometry, confluent adherent cells are detached using Gibco® Cell Dissociation Buffer (Life Technologies), washed with complete media, then resuspend in FACS buffer (phosphate buffered saline containing 2.5% fetal bovine serum+1 mM EDTA) and then transferred into a 96 well V bottom plate at a density of 5×10⁴ cells/well. […]
# (§2) After washing in FACS buffer, secondary antibody allophycocyanin (APC) conjugated goat anti-human IgG, F(ab′)2 fragment specific antibody (Jackson ImmunoResearch Laboratories) is added at a 1:200 dilution and cells are incubated at room temperature for 30 minutes. […] Flow cytometry data is analyzed using FlowJo® Software. Median fluorescence intensity (MFI) ratio is calculated as the (MFI of Experimental antibody)/(MFI of the control IgG).
# [4] = target: T2, Cynomolgus monkey CD226 on the cell …; assay: flow cytometry on HEK 293 cells expressing cynomolgus CD226, antibody at 0.14 ug/mL
# Protocol: as §1, with “surface cynomolgus monkey” for “surface Human”, “assay. Cynomolgus monkey” for “assay. Human”, “transfecting Cyno-CD226” for “transfecting human-CD226”
# as §2
# [5] = target: T3, Recombinant human CD226-Fc fusion …; assay: SPR (Biacore T200), human CD226-Fc amine-coupled to chip, antibody injected at 1.95-1000 nM, 25 C, steady state fit
# Protocol: A Biacore T200 instrument can be used to measure the kinetics of immobilized human CD226-Fc binding to Antibody 1. Recombinant human CD226-Fc fusion protein (R&D Systems) is covalently immobilized to a CMS sensor chip via amine coupling (GE Healthcare). CD226 antibody testing is performed at a flow rate of 100 μL/min in HBS-EP+buffer. Samples are injected at various concentrations and measurements obtained at 25° C. The surface is regenerated after each sample injection with 10 mM Glycine-HCl pH 2.1 at flow rate of 10 μL/min for 30 seconds and then stabilized with buffer for 10 seconds. Sensorgrams of concentrations ranging from 1.95 nM to 1000 nM are evaluated using Biacore T200 software. The equilibrium dissociation constant (KD) or binding affinity constant is calculated from steady state fit. In experiments performed essentially as described above, Antibody 1 binds to human CD226 with the affinity constants illustrated in Table 2.
binder,measurement,setting,value
B1,NF-kB luciferase reporter EC50,[1],4.11 nM
same,EC50,[2],0.1 nM
same,MFI ratio (MFI of antibody / MFI of control IgG),[3],851
same,MFI ratio (MFI of antibody / MFI of control IgG),[4],2920
same,Kd,[5],334 nM
